# Measured values published in patent publication US20180155425A1 (ZONHON BIOPHARMA INSTITUTE, published 2018).
# B1: ZHB BsAb-4 (bispecific antibody)
# chain: DVQLVQSGAEVKKPGASVKVSCKASGYTFTRYTMHWVRQAPGQGLEWIGYINPSRGYTNYADSVKGRFTITTDKSTSTAYMELSSLRSEDTATYYCARYYDDHYCLDYWGQGTTVTVSSGEGTSTGSGGSGGSGGADDIVLTQSPATLSLSPGERATLSCRASQSVSYMNWYQQKPGKAPKRWIYDTSKVASGVPARFSGSGSGTDYSLTINSLEAEDAATYYCQQWSSNPLTFGGGTKVEIKSGGGGSDILLTQSPSSLSATPGERATITCRASQGIRNNLNWYQQKPGQAPRLLIYYSSNLQSGVPSRFSGSGSGTDFTLTISRLQPEDVAAYYCQQSIKLPFTFGSGTKVEIKGGGGSGGGGSGGGGSEVQLVESGAGVKQPGGTLRLTCTASGFSLTTYGVHWVRQAPGKGLEWVGVIWGDGRTDYDAAFMSRVTISKDTSKSTVYLQMNSLRAEDTAVYYCMRNRHDWFDYWGQGTTVTVSS
# notes: Single-chain tandem scFv; detection on cells used an anti-His-tag antibody; also called anti-CD26×anti-CD3 bispecific antibody
# B2: ZHB BsAb-2 (bispecific antibody)
# chain: DILLTQSPSSLSATPGERATITCRASQGIRNNLNWYQQKPGQAPRLLIYYSSNLQSGVPSRFSGSGSGTDFTLTISRLQPEDVAAYYCQQSIKLPFTFGSGTKVEIKGGGGSGGGGSGGGGSEVQLVESGAGVKQPGGTLRLTCTASGFSLTTYGVHWVRQAPGKGLEWVGVIWGDGRTDYDAAFMSRVTISKDTSKSTVYLQMNSLRAEDTAVYYCMRNRHDWFDYWGQGTTVTVSSGGGGSDVQLVQSGAEVKKPGASVKVSCKASGYTFTRYTMHWVRQAPGQGLEWIGYINPSRGYTNYADSVKGRFTITTDKSTSTAYMELSSLRSEDTATYYCARYYDDHYCLDYWGQGTTVTVSSGEGTSTGSGGSGGSGGADDIVLTQSPATLSLSPGERATLSCRASQSVSYMNWYQQKPGKAPKRWIYDTSKVASGVPARFSGSGSGTDYSLTINSLEAEDAATYYCQQWSSNPLTFGGGTKVEIK
# notes: as for B1
# B3: ZHB BsAb-3 (bispecific antibody)
# chain: DVQLVQSGAEVKKPGASVKVSCKASGYTFTRYTMHWVRQAPGQGLEWIGYINPSRGYTNYADSVKGRFTITTDKSTSTAYMELSSLRSEDTATYYCARYYDDHYCLDYWGQGTTVTVSSGEGTSTGSGGSGGSGGADDIVLTQSPATLSLSPGERATLSCRASQSVSYMNWYQQKPGKAPKRWIYDTSKVASGVPARFSGSGSGTDYSLTINSLEAEDAATYYCQQWSSNPLTFGGGTKVEIKSGGGGSEVQLVESGAGVKQPGGTLRLTCTASGFSLTTYGVHWVRQAPGKGLEWVGVIWGDGRTDYDAAFMSRVTISKDTSKSTVYLQMNSLRAEDTAVYYCMRNRHDWFDYWGQGTTVTVSSGGGGSGGGGSGGGGSDILLTQSPSSLSATPGERATITCRASQGIRNNLNWYQQKPGQAPRLLIYYSSNLQSGVPSRFSGSGSGTDFTLTISRLQPEDVAAYYCQQSIKLPFTFGSGTKVEIK
# notes: as for B1
# B4: anti-CD26-scFv (scFv)
# scFv: EVQLVESGAGVKQPGGTLRLTCTASGFSLTTYGVHWVRQAPGKGLEWVGVIWGDGRTDYDAAFMSRVTISKDTSKSTVYLQMNSLRAEDTAVYYCMRNRHDWFDYWGQGTTVTVSSGGGGSGGGGSGGGGSDILLTQSPSSLSATPGERATITCRASQGIRNNLNWYQQKPGQAPRLLIYYSSNLQSGVPSRFSGSGSGTDFTLTISRLQPEDVAAYYCQQSIKLPFTFGSGTKVEIKHHHHHH
# notes: Expressed in Pichia pastoris; also called anti-CD26 single-chain antibody; parent single-chain antibody
# B5: ZHB BsAb-1 (bispecific antibody)
# chain: EVQLVESGAGVKQPGGTLRLTCTASGFSLTTYGVHWVRQAPGKGLEWVGVIWGDGRTDYDAAFMSRVTISKDTSKSTVYLQMNSLRAEDTAVYYCMRNRHDWFDYWGQGTTVTVSSGGGGSGGGGSGGGGSDILLTQSPSSLSATPGERATITCRASQGIRNNLNWYQQKPGQAPRLLIYYSSNLQSGVPSRFSGSGSGTDFTLTISRLQPEDVAAYYCQQSIKLPFTFGSGTKVEIKSGGGGSDVQLVQSGAEVKKPGASVKVSCKASGYTFTRYTMHWVRQAPGQGLEWIGYINPSRGYTNYADSVKGRFTITTDKSTSTAYMELSSLRSEDTATYYCARYYDDHYCLDYWGQGTTVTVSSGEGTSTGSGGSGGSGGADDIVLTQSPATLSLSPGERATLSCRASQSVSYMNWYQQKPGKAPKRWIYDTSKVASGVPARFSGSGSGTDYSLTINSLEAEDAATYYCQQWSSNPLTFGGGTKVEIK
# notes: detection on cells used an anti-His-tag antibody; also called anti-CD26×anti-CD3 bispecific antibody
# Target: T1, CD26 protein (UniProt P27487 39-766, limits assumed)
# T1 construct: Soluble CD26 protein in the biolayer interferometry assay on AR2G sensors
# Assay: BLI, Fortebio Qke, AR2G amine reactive biosensor
# Excerpt: Test method: The affinities of the bispecific antibodies to CD26 protein were detected by using the Molecular Interaction Instrument Fortebio Qke, following the instruction of operation of immersive readable Amine Reactive 2nd Generation Biosensor (Fortebio, AR2G).
row,Binder,Kd
1,B1,1.97 nM
2,B2,3.44 nM
3,B3,10 nM
4,B4,1 nM
5,B5,9.29 nM

# Target: T2, human CD26 on the surfaces of tumor cells (human, UniProt P27487 1-766)
# Assay: cell-based or functional assay
Binder,"Lysis rate (%) of COLO205 cells by PBMC, antibody at 10 ng/mL","Lysis rate (%) of Caki-1 cells by PBMC, antibody at 10 ng/mL","Lysis rate (%) of NCI-H2452 cells by PBMC, antibody at 10 ng/mL","Lysis rate (%) of PC-3 cells by PBMC, antibody at 10 ng/mL"
B1,5.4%,0.9%,0.5%,53.1%
B2,17%,26.5%,32.3%,39.6%
B3,5.3%,0.8%,0.7%,1.7%
B5,1.7%,0.3%,0.2%,45.4%

# Target: T2, human CD26 on the surfaces of tumor …
# Assay: flow cytometry on NCI-H2452 cells, anti-His-tag-Alexa Fluor 488 detection
# Procedure: (§1) Test method: 786-0 and NCI-H2452 cells in the logarithmic growth phase were trypsinized. The cells were harvested by centrifugation at 1000 rpm for 5 min, and washed twice with PBS buffer. One portion of 1.0×10⁶ cells was re-suspended in 250 μL PBS butler, and BsAb1, BsAb2, BsAb3, and BsAb4 were respectively added to give a final concentration of […] and incubated at room temperature for 1 hr. After incubation, the cells were washed twice with PBS buffer, and then 250 μL of Anti--His-tag-Alexa Fluor 488 antibody that was 1:2000 diluted was added and incubated at room temperature for 1 hr. After incubation, the cells were washed thrice with PBS, re-suspended in 300 μL PBS buffer, and detected by flow cytometer.
row,Binder,Binding rate
1,B1,1.4%
2,B2,71.8%
3,B3,0.7%
4,B5,1.1%

# Target: T2, human CD26 on the surfaces of tumor …
# Assay: flow cytometry on COLO205 cells, anti-His-tag-Alexa Fluor 488 detection
row,Binder,Binding rate
1,B1,0.2%
2,B2,14%
3,B3,0.4%
4,B5,0.1%

# Target: T2, human CD26 on the surfaces of tumor …
# Assay: cell-based or functional assay
# Remark: another data set of the same source
Binder,"Lysis rate (%) of 786-0 cells by T cells, antibody at 10^2 pg/mL","Lysis rate (%) of 786-0 cells by T cells, antibody at 10^3 pg/mL","Lysis rate (%) of 786-0 cells by T cells, antibody at 10^4 pg/mL","Lysis rate (%) of 786-0 cells by T cells, antibody at 10^5 pg/mL"
B1,24.3%,38.8%,64.8%,75.4%
B2,21.8%,59.2%,69.6%,76.3%
B4,10.8%,9.6%,10.9%,7.5%

# Target: T3, human CD3 on the surfaces of Jurkat cells / T cells (human, UniProt P07766 23-207; P09693 23-182; P04234 22-171)
# T3 construct: whole, on cells; CD3 is endogenous on Jurkat cells and on enriched human T cells; also called CD3 molecules on the surfaces of Jurkat cells
# Assay: flow cytometry on Jurkat (CD3+) cells, antibody at 10 µg/mL, anti-His-tag-Alexa Fluor 488 detection
# Procedure: Test method: Jurkat cells in the logarithmic growth phase were harvested by centrifugation at 1000 rpm for 5 min, and washed twice with PBS buffer. One portion of 1.0×10⁶ cells was re-suspended in 250 μL PBS buffer, and BsAb1, BsAb2, BsAb3, and BsAb4 were respectively added to give a final concentration of 10 μg/mL and incubated at room temperature for 1 hour. After incubation, the cells were washed twice with PBS, and then 250 μL of Anti-His-tag-Alexa Fluor 488 antibody that was 1:2000 diluted was added and incubated at room temperature for 1 hour. After incubation, the cells were washed thrice with PBS buffer, re-suspended in 300 μL PBS, and detected by flow cytometer.
row,Binder,binding rate to Jurkat cells
1,B1,56.5%
2,B2,92%
3,B3,0.2%
4,B5,0.1%

# Target: T2, human CD26 on the surfaces of tumor …
# Assay: cell-based or functional assay
# Remark: another data set of the same source
row,Binder,IC50 of T cell-mediated killing of 786-0 cells
1,B1,3.1 ng/mL
2,B2,1.39 ng/mL

# Target: T2, human CD26 on the surfaces of tumor …
# Assay: flow cytometry on Caki-1 cells, anti-His-tag-Alexa Fluor 488 detection
row,Binder,Binding rate
1,B1,1.1%
2,B2,49.9%
3,B3,1.2%
4,B5,1.1%

# Target: T2, human CD26 on the surfaces of tumor …
# Assay: flow cytometry on 786-0 cells, anti-His-tag-Alexa Fluor 488 detection
# Procedure: as §1
row,Binder,Binding rate
1,B1,98%
2,B2,99.6%
3,B3,9.4%
4,B5,41.1%

# Target: T2, human CD26 on the surfaces of tumor …
# Assay: flow cytometry on PC-3 cells, anti-His-tag-Alexa Fluor 488 detection
row,Binder,Binding rate
1,B1,62.9%
2,B2,42.8%
3,B3,0.1%
4,B5,1.2%

# Target: T2, human CD26 on the surfaces of tumor …
# Assay: cell-based or functional assay
# Remark: another data set of the same source
row,Binder,"Lysis (%) of 786-0 cells by PBMC, antibody at 10 ng/mL"
1,B1,25.5%
2,B2,27.4%
3,B3,4.3%
4,B4,4.1%
5,B5,15.9%
